Experimental data reported in doi:10.1101/2021.04.26.441525 (bioRxiv, 2021).

Biological target: the molecule itself
Assay: crystal structure

B1: BT_1526 myo-inositol phosphate synthase (MIPS) of Bacteroides thetaiotaomicron VPI-5482 (enzyme, UniProt Q8A7J8 1-429, looked up)
chain: MKQEIKPATGRLGVLVVGVGGAVATTMIVGTLASRKGLAKPIGSITQLATMRMENNEEKLIKDVVPLTDLNDIVFGGWDIFPDNAYEAAMYAEVLKEKDLNGVKDELEAIKPMPAAFDHNWAKRLNGTHIKKAATRWEMVEQLRQDIRDFKAANNCERVVVLWAASTEIYIPLSDEHMSLAALEKAMKDNNTEVISPSMCYAYAAIAEDAPFVMGAPNLCVDTPAMWEFSKQKNVPISGKDFKSGQTLMKTVLAPMFKTRMLGVNGWFSTNILGNRDGEVLDDPDNFKTKEVSKLSVIDTIFEPEKYPDLYGDVYHKVRINYYPPRKDNKEAWDNIDIFGWMGYPMEIKVNFLCRDSILAAPIALDLVLFSDLAMRAGMCGIQTWLSFFCKSPMHDFEHQPEHDLFTQWRMVKQTLRNMIGEKEPDYLA
stoichiometry N: 4
